Reference: PMC3785238 (Cell, 2013)
Non-standard residues stand in square brackets, D forms with d. No end group written: not given here. pT = C[C@@H](OP(=O)(O)O)[C@H](N)C(=O)O; pS = N[C@@H](COP(=O)(O)O)C(=O)O

B1: mGluR5 peptide spanning the Homer/Pin1 binding site, bacterially expressed, phosphorylated at T1123 and S1126 (peptide)
chain: KELVAL[pT]PP[pS]PFRD

Legend:
[1] = biological target: Homer1a, full length, recombinant; assay: ITC + NMR titration
[2] = biological target: Homer1a, full length, recombinant; assay: ITC
[3] = biological target: T1, Homer1c, full-length, recombinant (UniProt Q9Z214 1-366); assay: ITC
T1 sequence (looked up): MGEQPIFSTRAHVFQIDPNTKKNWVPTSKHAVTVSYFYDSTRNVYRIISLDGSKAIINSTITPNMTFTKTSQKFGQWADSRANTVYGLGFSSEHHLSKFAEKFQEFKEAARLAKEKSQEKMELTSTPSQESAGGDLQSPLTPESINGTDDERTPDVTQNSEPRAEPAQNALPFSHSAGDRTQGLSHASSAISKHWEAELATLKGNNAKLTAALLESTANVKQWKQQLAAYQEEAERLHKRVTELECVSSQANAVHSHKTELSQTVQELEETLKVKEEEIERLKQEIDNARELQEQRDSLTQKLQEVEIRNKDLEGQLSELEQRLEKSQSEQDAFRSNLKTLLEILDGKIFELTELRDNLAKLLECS

[4] = biological target: B1

Binder | Kd, calc cis [1] | Kd, calc trans [1] | Kd [2] | Kd [3] | Kd [4]
B1 | 160 nM | 760 nM | 470 ± 100 nM | – | –
KELVALTPP[pS]PFRD [mGluR5 peptide spanning the Homer/Pin1 binding site, bacterially expressed, phosphorylated at S1126] | 670 nM | 2190 nM | 1560 ± 160 nM | 1910 ± 190 nM | –
EKLPPGWEKRMSRSSGRVYYFNHITNASQWERPSG (domain or fragment, UniProt Q13526 5-39, looked up) [WW domain of Pin1] | – | – | – | – | 10700 ± 200 nM
